Assay results taken from the nanobody polyreactivity screen of Harvey et al. (2022).

Experiment: yeast display, Sf9 membrane polyspecificity reagent, FACS + sequencing; frameworks hold sequencing errors
Summary of the method: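 A synthetic nanobody library was expressed on Saccharomyces cerevisiae BJ5465 by galactose induction for 36–48 hours. The library was stained for 1 hour at 4 °C with 10% biotinylated, detergent-solubilized Sf9 membrane reagent and enriched with streptavidin microbeads before FACS. Low and high (top ~1%) gates were set on anti-HA fluorescence for expression and streptavidin fluorescence for reagent binding, and each polyreactivity label reflects the gate of origin.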

Row | Sequence | polyreactivity (PSR sort gate)
1 | QVQLVESGGGLVQAGGSLRLSCAASGRTFVYYAMGWYRQAPGKEREFVATITSSGGSTYYADSVKGRFTISRDNAKNTVYLQMNSLKPEDTAVYYCAASPYIRYSKVSKYYYWGQGTQVTVSS | high polyreactivity
2 | QVQLVESGGGLVQAGGSLRLSCAASGRTFVYYAMGWYRQAPGKERELVASISSVGTTKYADSVKGRFTISRDNAKNTVYLQMNSLKPEDTAVYYCAAVPLSRNIFDSWGQGTQVTVSS | low polyreactivity
3 | QVQLVESGGGLVQAGGSLRLSCAASGRTFWAYAMGWYRQAPGKERELVAAISVSGGRTYYADSVKGRFTISRDNAKYTVYLQMNSLKPEDSAVYYCNKRYLKSYQYYWGQGSQVTVSS | high polyreactivity
4 | QVQLVESGGGLVQAGGSLRLSCAASGRTFWAYAMGWYRQAPGKERELVAVIRGSGNTYYADSVKGRFTISRDNAKNTVYLQMNSLKPEDTAVYYCAASRAVTQYSGGGYWGQGTQVTVSS | high polyreactivity
5 | QVQLVESGGGLVQAGGSLRLSCAASGRTFWDYGMGWYRQAPGKERELVATISGNGGDTYYADSVKGRFTISRDNAKNTVYLQMNSLKPEDTAVYYCAADYRFYRTDRHYDYWGQGSQVTVSS | low polyreactivity
6 | QVQLVESGGGLVQAGGSLRLSCAASGRTFWENAMGWYRQAPGKERELVAAISGDSGSTYYADSVKGRFTISRDNAKNTVYLQMNSLKPEDTAVYYCAADSDRDDSYPYYYWGQGTQVTVSS | low polyreactivity
7 | QVQLVESGGGLVQAGGSLRLSCAASGRTFWGNAMGWYRQAPGKERELVAAIRRGGRTNYADSVKGRFTISRDNAKNTVYLQMNSLKPEDTAVYYCNALYAWSWPRGYDYWGQGTQVTVSS | high polyreactivity
8 | QVQLVESGGGLVQAGGSLRLSCAASGRTFWGYGMGWYRQAPGKERELVATISSGGSTYYADSVKGRFTISRDNAKNTVYLQMNSLKPEDTAVYYCAARPPRTYWRYQSDYWGQGTQLTVSS | high polyreactivity
9 | QVQLVESGGGLVQAGGSLRLSCAASGRTFWGYPMGWYRQAPGKERELVAAISSGGSTHYADSVKGRFTISRDNAKNTVYLQMNSLKPEDTAVYYCAAAVGYYAFGTYPFDDWPYDYWGQGTQVTVSS | high polyreactivity
10 | QVQLVESGGGLVQAGGSLRLSCAASGRTFWKYAMGWSRQAPGKERELVAAITDDDSTDYADSVKGRFTISRDNAKNTVYLQMTRLKPEDTAVYYCNADSSRYYRALEYWGQGTQVTVSA | low polyreactivity
11 | QVQLVESGGGLVQAGGSLRLSCAASGRTFWNYAMGWYRQAPGKERELVAVIRFSDGSTYYADSVKGRFTISRDNAKNTVYLQMNSLKPEDTAVYYCAAKGPRRWGSGFDYWGQATQVTVSS | low polyreactivity
12 | QVQLVESGGGLVQAGGSLRLSCAASGRTFWNYSMGWYRQAPGKERELVAVIRFSDGSTYYADSVKGRFTISRDNAKNTVYLQMNSLKPEDTAVYYCAADYSLYGWWFRNDYWGQGTQVTVSS | low polyreactivity
13 | QVQLVESGGGLVQAGGSLRLSCAASGRTFWPYAMGWYRQAPGKERELVAAINWGGGSTYYADSVKGRFTISRDNAKNTVYLQMNSLKPEDTAVYYCAADVGRNKMDYWGQGTQVTVSS | low polyreactivity
14 | QVQLVESGGGLVQAGGSLRLSCAASGRTFWPYAMGWYRQAPGKERELVARITASGGRTYYADSVKWRFTISRDNAKNTVYLQMNSLKPEDTAVYYCATSYSTRIWTWRAGDYWGQGSQVTVSS | high polyreactivity
15 | QVQLVESGGGLVQAGGSLRLSCAASGRTFWRNAMGWYRQAPGKERELVAAISSSGDRTYYADSVKGRFTISRDNANNTVYLQMNSLKPEDTAVYYCAADVRYSSRFYYWGQGTQVTVSS | high polyreactivity
16 | QVQLVESGGGLVQAGGSLRLSCAASGRTFWRNAMGWYRQAPGKERELVAVISVRGSSTSYADSVKGRFTISRDNAKNTVYLQMNSLKPEDTAVYYCNKASRTYGTGYDYWGQGTQVTVSS | high polyreactivity
17 | QVQLVESGGGLVQAGGSLRLSCAASGRTFWSNAMGSYRQAPGKERELVAAINTSGGNTYYADSVKGRFTISRDNAKNTVYLQMNSLKPEDTAVYFCNTDGLVRNGPFYSWGQGTQVTVSS | low polyreactivity
18 | QVQLVESGGGLVQAGGSLRLSCAASGRTFWSNDMGWYRQAPGKEREFVAVISRSGSTTYYADSVKGRFTISRDNAKNTVYLQMNSRKPEDTAVYYCAADRVRSYFSRYYSTPLDYYLGQGTQVTVSS | high polyreactivity
19 | QVQLVESGGGLVQAGGSLRLSCAASGRTFWSYAMGWYRQAPGKERELVAAIRTSDGITYYADSVKGRFTISRDNAKNTVYLQMNSLKPEDTAVYYCARDIRQYILYGRGDYWGQGTQVTVSS | low polyreactivity
20 | QVQLVESGGGLVQAGGSLRLSCAASGRTFWTNAMGWYRQAPGKERELVAAIDRSSTSTYYADSVKGRFTISRDNAKNTVYLQMNSLKPEDTAVYYCAAENPVIVETPYGGFVGKGDSWGQGTQVTVSS | low polyreactivity
21 | QVQLVESGGGLVQAGGSLRLSCAASGRTFWTYTMGWYRQAPGKERELVAAISYSGSRTYYADSVKGRFTISRDNAKNTVYLQMNSQKPEETAVYYWATDDSDYLYRTVSAWEYDYWGQGTQVTVSS | low polyreactivity
22 | QVQLVESGGGLVQAGGSLRLSCAASGRTFWYNAMGWYRQAPRKERELVAAISSGSSTKYADSVKGRFTISRDNAKNTVYLQMNSLKPEDTAVYYCARGGWAYCPRYNYWGQGTQVTVSS | high polyreactivity

Row | Sequence | polyreactivity (PSR sort gate)
23 | QVQLVESGGGLVQAGGSLRLSCAASGRTFWYSAMGWYRQAPGKEREFVAAISWSGGSTYYADSVKGRFTISRDNAKNTVYLQMNSLKPEDTAVYYCAADRYDSSQFYYWGQGTQVTVSS | low polyreactivity
24 | QVQLVESGGGLVQAGGSLRLSCAASGRTFWYYAMGWSRQAPGKERELVATITSGGSTYYADSVKGRFTISRDNAKNTVYLQMNSLKPEDTAVYYCAARKYYSRAYDYWGQGTQVTVSS | high polyreactivity
25 | QVQLVESGGGLVQAGGSLRLSCAASGRTFWYYAMGWYRQAPGKEREFVAAISWSGGSTYYADSVKGRFTISRDNAKNTVYLQMNSLKPEDTAVYYCAADGYDSSQFYYWGQGTQVTVSS | low polyreactivity
26 | QVQLVESGGGLVQAGGSLRLSCAASGRTFWYYAMGWYRQAPGTERELVAAITYRGTRTYADSVKGRFTISRDNAKNTVYLQMNSQKPEDTPVYYCAKDVGYRYSGTMDYWGQGTQVTVSS | high polyreactivity
27 | QVQLVESGGGLVQAGGSLRLSCAASGRTFWYYAMGWYRQSPGKERELVAVITSGSSTYYADSVKGRFTISRDNAKNTVYLQMNSLKPEDTAVYYCNKLGRIQYDYWGQGTQVTVSS | high polyreactivity
28 | QVQLVESGGGLVQAGGSLRLSCAASGRTFWYYTMGWYRQAPGKERELVAAISSGGTTNYADSVKGRFTISRDNAKNTVYLQMNSLKPEDTAVYYCAARYRSYAVRLRGYDYWGQGTQVTVSS | high polyreactivity
29 | QVQLVESGGGLVQAGGSLRLSCAASGRTFYANAMGWYRHAPGKERELVASITGSGGRTYYADSVKGRFTISRDNAKNTVYLLMNSLKPEDTAVYYCNADPGWVYRDYEPNGLDYWGQGTQVTVSS | low polyreactivity
30 | QVQLVESGGGLVQAGGSLRLSCAASGRTFYDNAMGWDRQAPGKARELVAAITQSGGRTYYADSVKGRFTISRDNAKNTGYLQMNSLKPADTAVYYCAASWPNYLYEYWGQGTQVTVSS | high polyreactivity
31 | QVQLVESGGGLVQAGGSLRLSCAASGRTFYDNAMGWYRQAPGNERELVAAITVRGGSTRYADSVKGRFTISRDNAKNTVYLQLNSLKPEDTAVYYCAATQTPYRYHYDYWGQGTQVTVSS | high polyreactivity
32 | QVQLVESGGGLVQAGGSLRLSCAASGRTFYDYAMGWYRQAHGKERELVAAIRLSGASTYYADSVKGRFTISRDNAKNTVYLQMNSLKPEDTAVYYCAARYGGRVAYRGYSYYYWGQGTQVTVSS | high polyreactivity
33 | QVQLVESGGGLVQAGGSLRLSCAASGRTFYDYAMGWYRQAPGKEREFVARITYSGGGTYYADSVKGRFTISRDNAKHTVYLQMNSLKPEDTAVYYCARPFNRYLGLTRNGYTSDYWGQGTQVTVSS | high polyreactivity
34 | QVQLVESGGGLVQAGGSLRLSCAASGRTFYDYAMGWYRQAPGKERELVAASSRRAGSTYYADSVKGRFTISRDNAKNTVFLEMNSLKPEDTSVYYCAAAYYRRWWRGHHYAFDYWGQGSQVTVSS | high polyreactivity
35 | QVQLVESGGGLVQAGGSLRLSCAASGRTFYDYAMGWYRQAPGKERELVADITSGGGNTYYADSVKGRFTISRDNAKNTVYLQMNSLKPEDTAVYYCNADYDLYFSGWYDYWGQGTQVTVSS | low polyreactivity
36 | QVQLVESGGGLVQAGGSLRLSCAASGRTFYDYAMGWYRQAPGKERELVASINSDGSTYYADSVKGRFTISLDNAKNTVYLQMNSLKPEDTAVYYCAADALLYSVYYRMYGYDYWGQGTQVTVSS | low polyreactivity
37 | QVQLVESGGGLVQAGGSLRLSCAASGRTFYDYDMGCDRQAPGKERELVAAISGGDSTYYADSVKGRFTISRDNAKNTVYLQMNSLKPEDTAVYYCAVTPRGLPYGAYLLYYWGQGTQVTVSS | low polyreactivity
38 | QVQLVESGGGLVQAGGSLRLSCAASGRTFYFNAMGWYRQAPGKERELVATITRRGGSTSYADSVKGRFTISRDNAKNTVYLQMNSLKPEDTAVYYCGNVSPPKFPERFDYWGQGTQVTVSS | low polyreactivity
39 | QVQLVESGGGLVQAGGSLRLSCAASGRTFYFYTMGWYRQAPGKERELVATINWSGTSTYYADSVKGRFTISRDNAKNTVYLQMNSLKPEDTAVYYCAVRGGRYKYGYDYWGQGSQVTVSS | high polyreactivity
40 | QVQLVESGGGLVQAGGSLRLSCAASGRTFYGNAMGWYRQAPGKEREFVAGISWRGGRTYYADSVKGRFTISRDNAKNTVYLQMNSLKPEDTAVYYCAASAGYRGRKQYHENGYWGQGTQVTVSS | high polyreactivity
41 | QVQLVESGGGLVQAGGSLRLSCAASGRTFYGNGMGWYRQAPGKDRELVAAISWSGGSTYYADSVKGRFTISRDNAKNTVYLQMNSLKPEDTAVYYCAAAYRSFIIGRWYDYWGQGTQVTVSS | low polyreactivity
42 | QVQLVESGGGLVQAGGSLRLSCAASGRTFYGNVMGWYRQAPGKERELVAAISSRGSRTYYADSVKGRFTISRDNAKNTVYLQMNSLKPEETAVYYCNTYVRNHGLAGPDDYWGQGTLVTVSS | high polyreactivity
43 | QVQLVESGGGLVQAGGSLRLSCAASGRTFYGYAMGWYRPAPGKERELVAAIDRGGSTDYADSVKGRFTISRDNAKNTVYLQLNSLKTEDTAVYYCAKGYDYYGRRYYYWGQGTQVTVSS | high polyreactivity
